Assays:
Test in all cases: ELISA, coated protein
[1] = target: T1, HSA(ヒト血清アルブミン) (ヒト, UniProt P02768 25-609)
T1 construct: also called HSA

[2] = target: T2, BSA(ウシ血清アルブミン) (ウシ, UniProt P02769 25-607)
T2 construct: also called BSA

[3] = target: Human-hemoglobin (human, UniProt P69905 2-142; P68871 2-147)

Measured: binding result

T1 sequence (P02768 25-609): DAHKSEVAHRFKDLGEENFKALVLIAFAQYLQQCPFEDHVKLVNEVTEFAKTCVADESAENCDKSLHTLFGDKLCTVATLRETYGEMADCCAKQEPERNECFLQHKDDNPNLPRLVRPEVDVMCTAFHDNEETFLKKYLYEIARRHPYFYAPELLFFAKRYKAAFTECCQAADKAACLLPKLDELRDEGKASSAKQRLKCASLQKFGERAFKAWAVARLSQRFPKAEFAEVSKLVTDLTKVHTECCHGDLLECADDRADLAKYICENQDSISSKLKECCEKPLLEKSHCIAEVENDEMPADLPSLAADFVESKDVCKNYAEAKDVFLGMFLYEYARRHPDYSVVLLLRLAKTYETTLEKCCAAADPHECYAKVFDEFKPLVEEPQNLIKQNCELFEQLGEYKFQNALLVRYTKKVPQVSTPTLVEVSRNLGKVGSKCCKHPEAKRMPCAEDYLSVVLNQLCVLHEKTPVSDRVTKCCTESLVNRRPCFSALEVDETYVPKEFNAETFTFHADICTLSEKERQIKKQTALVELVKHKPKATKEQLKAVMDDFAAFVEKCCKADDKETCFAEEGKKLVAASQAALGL
Chain of Human-hemoglobin (P69905 2-142 limits assumed, chain 1 of 2): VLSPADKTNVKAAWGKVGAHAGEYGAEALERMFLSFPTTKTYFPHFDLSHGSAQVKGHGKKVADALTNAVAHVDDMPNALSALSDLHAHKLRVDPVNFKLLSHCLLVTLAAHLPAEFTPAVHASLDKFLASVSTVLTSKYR
Chain of Human-hemoglobin (P68871 2-147 limits assumed, chain 2 of 2): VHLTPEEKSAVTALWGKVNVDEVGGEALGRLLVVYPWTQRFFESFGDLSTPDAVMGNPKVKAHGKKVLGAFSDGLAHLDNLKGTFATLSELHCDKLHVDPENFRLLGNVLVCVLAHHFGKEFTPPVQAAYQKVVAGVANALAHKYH
T2 sequence (P02769 25-607 limits assumed): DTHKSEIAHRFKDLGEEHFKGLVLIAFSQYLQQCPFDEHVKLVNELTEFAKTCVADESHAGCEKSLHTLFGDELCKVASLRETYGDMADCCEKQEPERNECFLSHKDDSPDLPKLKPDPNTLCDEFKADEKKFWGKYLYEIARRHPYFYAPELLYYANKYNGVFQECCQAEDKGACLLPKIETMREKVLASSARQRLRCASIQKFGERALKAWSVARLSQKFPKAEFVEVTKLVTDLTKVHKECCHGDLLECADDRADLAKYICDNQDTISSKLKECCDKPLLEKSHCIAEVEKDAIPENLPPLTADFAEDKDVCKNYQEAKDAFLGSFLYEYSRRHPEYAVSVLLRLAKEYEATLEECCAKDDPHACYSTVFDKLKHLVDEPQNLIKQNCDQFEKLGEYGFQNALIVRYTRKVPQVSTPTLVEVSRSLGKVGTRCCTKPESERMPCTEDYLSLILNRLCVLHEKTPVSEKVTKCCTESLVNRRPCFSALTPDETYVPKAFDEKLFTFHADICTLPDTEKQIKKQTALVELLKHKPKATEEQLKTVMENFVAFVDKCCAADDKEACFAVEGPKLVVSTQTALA

B1: モノクロナール抗体(抗体酵素)HA1−1 (antibody, V domains shown)
VH: QVQLQQSGPQLVRPGASVKISCKTSGYSFTTYWMHWVKQRPGQGLDWIGMIDPSESETRLNQKFKDKATLTVDKSSSTADMQLSSPTSEDSAVYYCASYEGYWGQGTLVTVS
VL: DIVMSQSPSSLAVSAGEKVTMSCKSSQSLLNSRTRKNYLAWYQQKPGQSPKLLIYWASARESGVPDRFTGSGSGTDFTLTISSVQAEDLAVYYCKQSYTLTWTFGGGTKVEIKR
notes: also called HA1-1; HA1−1抗体
no binding: [1] | [2] | [3]

B2: モノクロナール抗体(抗体酵素)HA1−2 (antibody, V domains shown)
VH: QVQLQQSGPHLVRPGTSVRISCKASGYSFTSYWMHWVKQRPGQGLEWIGMIAPSDSETGLNQKFKDKATLTVDKSSSTAYIQLSSPTSEDSAVYYCASYEAYWGQGTLVTVS
VL: DIVMSQSPSSLAVSVGEKVTMSCKSSQSLLNSRARKNYLAWYQQKPGQSPKLLIYWASTRESGVPDRFTGSGSGTDFTLTISSVQAEDLAVYYCKQSYNVTWTFGGGTKLEIKR
notes: also called HA1-2; HA1−2抗体
no binding: [1] | [2] | [3]

Reference: JP2006347922A (dated 2006)
